Assay results as given in the supplement of paper PMC9112550, “Optimization of the antimicrobial peptide Bac7 by deep mutational scanning” (BMC Biology, 2022).

Tested on: Escherichia coli TOP10
Assay: shrunken log2 fold change of peptide-encoding DNA abundance (4.5 h post-induction vs induction); higher = less antimicrobial activity (less host growth inhibition)
Conditions: time post-induction: 4.5 h; library: site-saturation at positions 5, 18, 19, 20
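Also: peptides expressed intracellularly from a pBAD plasmid library in pooled LB shake-flask culture, induced with 0.3% L-arabinose, DNA abundance read by NGS, three biological replicates, DESeq2 with apeglm shrinkage.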

RRIRHRPPRLPRPRPRPNNLPRP
shrunken log2 fold change: -0.596

RRIRDRPPRLPRPRPRPPAPPRP
shrunken log2 fold change: 1.05

RRIRSRPPRLPRPRPRPNWHPRP
shrunken log2 fold change: -0.137

RRIRPRPPRLPRPRPRPFACPRP
shrunken log2 fold change: -0.0209

RRIRYRPPRLPRPRPRPNDAPRP
shrunken log2 fold change: 0.011

RRIRVRPPRLPRPRPRPPKGPRP
shrunken log2 fold change: 0.18

RRIRTRPPRLPRPRPRPWNNPRP
shrunken log2 fold change: -0.256

RRIRRRPPRLPRPRPRPNHTPRP
shrunken log2 fold change: -0.306

RRIRGRPPRLPRPRPRPELCPRP
shrunken log2 fold change: 0.18

RRIRRRPPRLPRPRPRPNTHPRP
shrunken log2 fold change: -0.126

RRIRFRPPRLPRPRPRPRTIPRP
shrunken log2 fold change: -0.219

RRIRTRPPRLPRPRPRPYICPRP
shrunken log2 fold change: -0.143

RRIRTRPPRLPRPRPRPVMGPRP
shrunken log2 fold change: -0.0279

RRIRMRPPRLPRPRPRPNYKPRP
shrunken log2 fold change: -0.504

RRIRRRPPRLPRPRPRPWGDPRP
shrunken log2 fold change: -0.0841

RRIRLRPPRLPRPRPRPGMEPRP
shrunken log2 fold change: 0.251

RRIRARPPRLPRPRPRPYMEPRP
shrunken log2 fold change: -0.348

RRIRSRPPRLPRPRPRPAFWPRP
shrunken log2 fold change: 0.651

RRIRWRPPRLPRPRPRPYQMPRP
shrunken log2 fold change: -0.0321

RRIRWRPPRLPRPRPRPPEAPRP
shrunken log2 fold change: 0.428

RRIRPRPPRLPRPRPRPIDNPRP
shrunken log2 fold change: -0.15

RRIRARPPRLPRPRPRPPFCPRP
shrunken log2 fold change: 0.31

RRIRKRPPRLPRPRPRPRPNPRP
shrunken log2 fold change: 0.42

RRIRWRPPRLPRPRPRPIDIPRP
shrunken log2 fold change: -0.535

RRIRCRPPRLPRPRPRPHGCPRP
shrunken log2 fold change: -0.037

RRIRLRPPRLPRPRPRPLHWPRP
shrunken log2 fold change: 1.5

RRIRFRPPRLPRPRPRPCHMPRP
shrunken log2 fold change: -0.285

RRIRHRPPRLPRPRPRPCPLPRP
shrunken log2 fold change: -0.667

RRIRERPPRLPRPRPRPEVRPRP
shrunken log2 fold change: 0.138

RRIRGRPPRLPRPRPRPSQWPRP
shrunken log2 fold change: 0.101

RRIRFRPPRLPRPRPRPTCTPRP
shrunken log2 fold change: -0.0787

RRIRMRPPRLPRPRPRPYPEPRP
shrunken log2 fold change: -0.121

RRIRGRPPRLPRPRPRPPPMPRP
shrunken log2 fold change: 1.19

RRIRSRPPRLPRPRPRPLTCPRP
shrunken log2 fold change: -0.114

RRIRKRPPRLPRPRPRPYFVPRP
shrunken log2 fold change: -0.264

RRIRFRPPRLPRPRPRPTNSPRP
shrunken log2 fold change: -0.271

RRIRRRPPRLPRPRPRPCNHPRP
shrunken log2 fold change: -0.011

RRIRNRPPRLPRPRPRPELVPRP
shrunken log2 fold change: 0.391

RRIRVRPPRLPRPRPRPTYFPRP
shrunken log2 fold change: -0.0832

RRIRVRPPRLPRPRPRPRWHPRP
shrunken log2 fold change: 0.217

RRIRERPPRLPRPRPRPESLPRP
shrunken log2 fold change: 0.0354

RRIRIRPPRLPRPRPRPQQCPRP
shrunken log2 fold change: -0.211

RRIRIRPPRLPRPRPRPQQRPRP
shrunken log2 fold change: -0.104

RRIRGRPPRLPRPRPRPYWTPRP
shrunken log2 fold change: -0.0522

RRIRTRPPRLPRPRPRPFAIPRP
shrunken log2 fold change: 0.061

RRIRLRPPRLPRPRPRPPLTPRP
shrunken log2 fold change: 0.288

RRIRRRPPRLPRPRPRPSCAPRP
shrunken log2 fold change: 0.452

RRIRYRPPRLPRPRPRPFCSPRP
shrunken log2 fold change: -0.425

RRIRKRPPRLPRPRPRPVISPRP
shrunken log2 fold change: -0.00841

RRIRNRPPRLPRPRPRPKWHPRP
shrunken log2 fold change: 0.129
